In one data set the target is GST. Briefly: cross-linking; controls GST and Thioredoxin; the cross-linker is not named in the legend.
Data set [1] deals with the molecule itself. Briefly: cross-linking; glutaraldehyde, 10 min at room temperature in PBS with 1 mM beta-mercaptoethanol; protein adjusted to 10 uM; SDS-PAGE, silver staining.
Data set [2] deals with the molecule itself. Briefly: cross-linking; EGS, increasing amounts, 10 min at room temperature in PBS with 1 mM beta-mercaptoethanol; protein adjusted to 10 uM; SDS-PAGE, silver staining.
Data set [3] has as its target T1, HT:F-Insv (UniProt Q8SYK5 1-376).
T1 sequence: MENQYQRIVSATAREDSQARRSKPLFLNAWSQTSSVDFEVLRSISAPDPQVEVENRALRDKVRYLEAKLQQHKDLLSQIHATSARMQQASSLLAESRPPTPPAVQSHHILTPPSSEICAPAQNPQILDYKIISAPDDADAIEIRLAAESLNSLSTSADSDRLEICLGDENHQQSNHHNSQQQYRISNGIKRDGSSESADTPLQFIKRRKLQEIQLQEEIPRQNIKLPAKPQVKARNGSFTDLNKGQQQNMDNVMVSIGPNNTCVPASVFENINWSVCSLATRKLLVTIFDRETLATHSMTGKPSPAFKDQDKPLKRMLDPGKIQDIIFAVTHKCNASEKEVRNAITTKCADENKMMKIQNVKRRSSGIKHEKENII
Briefly: EMSA; 0.0005-0.5 uM protein; EMSA: 25 mM Tris-HCl pH 7.4, 100 mM KCl, 1 mM EDTA, 0.1 mM DTT, 0.1 mM PMSF, 0.03 mg/mL BSA, 10% glycerol, 0.5% Triton X-100, 0.25 mg/mL poly(dI-dC), 30 min room temperature. Particulars: protein: recombinant; tags: N-terminal His-Thioredoxin; label: 5'-32P; blunt.

For data set [4], the target named is T2, HS:C-BEN (UniProt Q8SYK5 210-376).
T2 sequence: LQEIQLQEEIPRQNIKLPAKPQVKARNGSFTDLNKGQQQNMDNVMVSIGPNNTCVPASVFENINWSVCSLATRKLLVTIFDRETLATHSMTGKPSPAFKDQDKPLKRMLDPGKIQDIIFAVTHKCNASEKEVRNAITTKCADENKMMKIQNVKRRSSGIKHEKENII
Briefly: EMSA; two shifts; slower one predominates at high protein; EMSA: 25 mM Tris-HCl pH 7.4, 100 mM KCl, 1 mM EDTA, 0.1 mM DTT, 0.1 mM PMSF, 0.03 mg/mL BSA, 10% glycerol, 0.5% Triton X-100, 0.25 mg/mL poly(dI-dC), 30 min room temperature. Particulars: protein: recombinant; tags: N-terminal His-Sumo; chain copies: 2; label: 5'-32P; blunt.

In the next data set the target is T3, GST:F-Insv (UniProt Q8SYK5 1-376).
T3 sequence: T1 sequence
Briefly: EMSA; closely spaced doublet; EMSA: 25 mM Tris-HCl pH 7.4, 100 mM KCl, 1 mM EDTA, 0.1 mM DTT, 0.1 mM PMSF, 0.03 mg/mL BSA, 10% glycerol, 0.5% Triton X-100, 0.25 mg/mL poly(dI-dC), 30 min room temperature. Conditions: protein: recombinant; tags: N-terminal GST; label: 5'-32P; blunt.

In another data set the target is T4, GST:N-terminal 213 aa (UniProt Q8SYK5 1-213).
T4 sequence: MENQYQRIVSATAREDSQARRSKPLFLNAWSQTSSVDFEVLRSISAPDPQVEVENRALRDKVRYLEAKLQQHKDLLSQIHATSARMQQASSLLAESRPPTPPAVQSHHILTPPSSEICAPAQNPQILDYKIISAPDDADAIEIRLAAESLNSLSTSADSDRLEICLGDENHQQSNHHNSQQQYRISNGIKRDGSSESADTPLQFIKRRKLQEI
Briefly: EMSA; data not shown; EMSA: 25 mM Tris-HCl pH 7.4, 100 mM KCl, 1 mM EDTA, 0.1 mM DTT, 0.1 mM PMSF, 0.03 mg/mL BSA, 10% glycerol, 0.5% Triton X-100, 0.25 mg/mL poly(dI-dC), 30 min room temperature. Particulars: protein: recombinant; tags: N-terminal GST; label: 5'-32P; blunt.

A further data set deals with T5, GST:C-BEN (UniProt Q8SYK5 210-376).
T5 sequence: T2 sequence
Briefly: EMSA; EMSA: 25 mM Tris-HCl pH 7.4, 100 mM KCl, 1 mM EDTA, 0.1 mM DTT, 0.1 mM PMSF, 0.03 mg/mL BSA, 10% glycerol, 0.5% Triton X-100, 0.25 mg/mL poly(dI-dC), 30 min room temperature. Conditions: protein: recombinant; tags: N-terminal GST; chain copies: 2; label: 5'-32P; blunt.

A further data set deals with T6, GST:BEN (UniProt Q8SYK5 258-356).
T6 sequence: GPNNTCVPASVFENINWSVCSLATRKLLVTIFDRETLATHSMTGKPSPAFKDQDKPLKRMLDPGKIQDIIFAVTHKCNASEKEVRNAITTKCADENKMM
Described as above. Conditions: protein: recombinant; tags: N-terminal GST; chain copies: 2; label: 5'-32P; blunt.

Another data set addresses T7, HS:F-Insv (UniProt Q8SYK5 1-376).
T7 sequence: T1 sequence
Briefly: EMSA; gel-filtration fractions ~420-120 kDa; early aggregate fractions give no shift; EMSA: 25 mM Tris-HCl pH 7.4, 100 mM KCl, 1 mM EDTA, 0.1 mM DTT, 0.1 mM PMSF, 0.03 mg/mL BSA, 10% glycerol, 0.5% Triton X-100, 0.25 mg/mL poly(dI-dC), 30 min room temperature. Particulars: protein: recombinant; tags: N-terminal His-Sumo; label: 5'-32P; blunt.

Data set [5] has as its target T1, HT:F-Insv. Briefly: EMSA; at least three shifts; EMSA: 25 mM Tris-HCl pH 7.4, 100 mM KCl, 1 mM EDTA, 0.1 mM DTT, 0.1 mM PMSF, 0.03 mg/mL BSA, 10% glycerol, 0.5% Triton X-100, 0.25 mg/mL poly(dI-dC), 30 min room temperature. Conditions: protein: recombinant; tags: N-terminal His-Thioredoxin; label: 5'-32P; blunt.
Data set [6] concerns the target T2, HS:C-BEN. Briefly: EMSA; multiple shifts, at lower protein than for P2; EMSA: 25 mM Tris-HCl pH 7.4, 100 mM KCl, 1 mM EDTA, 0.1 mM DTT, 0.1 mM PMSF, 0.03 mg/mL BSA, 10% glycerol, 0.5% Triton X-100, 0.25 mg/mL poly(dI-dC), 30 min room temperature. Conditions: protein: recombinant; tags: N-terminal His-Sumo; chain copies: 2; label: 5'-32P; blunt.
Data set [7] concerns the target T1, HT:F-Insv. Briefly: EMSA; multiple shifts; 0.0005-0.5 uM protein; EMSA: 25 mM Tris-HCl pH 7.4, 100 mM KCl, 1 mM EDTA, 0.1 mM DTT, 0.1 mM PMSF, 0.03 mg/mL BSA, 10% glycerol, 0.5% Triton X-100, 0.25 mg/mL poly(dI-dC), 30 min room temperature. Particulars: protein: recombinant; tags: N-terminal His-Thioredoxin; label: 5'-32P; blunt.
Data set [8] addresses T2, HS:C-BEN. Briefly: EMSA; multiple shifts, mainly tetramer/hexamer; EMSA: 25 mM Tris-HCl pH 7.4, 100 mM KCl, 1 mM EDTA, 0.1 mM DTT, 0.1 mM PMSF, 0.03 mg/mL BSA, 10% glycerol, 0.5% Triton X-100, 0.25 mg/mL poly(dI-dC), 30 min room temperature. Particulars: protein: recombinant; tags: N-terminal His-Sumo; chain copies: 2; label: 5'-32P; blunt.
Data set [9] concerns the molecule itself. Briefly: SEC; Superdex 200 10/300 column; 500 uL of the eluted protein loaded; sizes estimated against Bio-Rad standards (1.35 to 670 kDa).
Data set [10] deals with the molecule itself. Briefly: SEC; Superose 6 10/300 column; 500 uL of the eluted protein loaded; fractions analysed by SDS-PAGE and EMSA; sizes estimated against Bio-Rad standards.

Several values for one entry are separate records, joined by “and”; a condition that tells them apart may be missing. Equal values may be shown once.

The molecule GST (natural protein) registered a stoichiometry N in the data set with GST of 2.

B1: HT:N1-111 (domain or fragment, Drosophila, UniProt Q8SYK5 1-111, looked up)
chain: MENQYQRIVSATAREDSQARRSKPLFLNAWSQTSSVDFEVLRSISAPDPQVEVENRALRDKVRYLEAKLQQHKDLLSQIHATSARMQQASSLLAESRPPTPPAVQSHHILT
notes: Insensitive (Insv), Drosophila, residues 1-111: includes the predicted coiled-coil domain (about 51-104); source: E. coli, purified (Ni-NTA Agarose); not shown: His6, N-terminal, kept; Thioredoxin, N-terminal, kept
With B1, in data set [1], the “stoichiometry N” value turned out to be 4.

B2: HT:N1-213 (domain or fragment, Drosophila, UniProt Q8SYK5 1-213, looked up)
chain: T4 sequence
notes: source: E. coli, purified (Ni-NTA Agarose); not shown: His6, N-terminal, kept; Thioredoxin, N-terminal, kept
B2: the “stoichiometry N” value in [2] was found to be 4.

B3: P3 (dsDNA)
DNA 1: CCACCGCAAAATCCAATTGGAAGAGAGCGACT
DNA 2: AGTCGCTCTCTTCCAATTGGATTTTGCGGTGG
Take B3: the binding result in the data set with HT:F-Insv [3] is “binds”; with HS:C-BEN [4], “binds”; in the data set with GST:F-Insv it was “binds”; with GST:N-terminal 213 aa, “no binding”; with GST:C-BEN, “binds”; with GST:BEN, “binds”. The binding result with HS:F-Insv was “binds”.

B4: 2xPal (dsDNA)
DNA 1: CTCGAGGGGTTTCTTTCCCAATTGGAAATGCGTCCTGTCGAGGGGTTTCTTTCCCAATTGGAAATGCGTCCTGTCGACGGTATCGATAAGCTTGATATCGAATTCCTGCAGCCCGGGGATCC
DNA 2: GGATCCCCGGGCTGCAGGAATTCGATATCAAGCTTATCGATACCGTCGACAGGACGCATTTCCAATTGGGAAAGAAACCCCTCGACAGGACGCATTTCCAATTGGGAAAGAAACCCCTCGAG
In the case of B4, the binding result in the data set with HT:F-Insv [5] and in the data set with HS:C-BEN [6] was “binds” throughout.

B5: P2 (P2#7) (dsDNA)
DNA 1: CTTGCGCAGGACTTTTGAGATTCTATTAAATTCTAACAAGATTTCAAGCTGTGTGGCGGGGGGAAGAGGAAGAGAGCGGAAAGTGCAGCGCCCAATAAGCAAATGGCAGCTGTCACG
DNA 2: CGTGACAGCTGCCATTTGCTTATTGGGCGCTGCACTTTCCGCTCTCTTCCTCTTCCCCCCGCCACACAGCTTGAAATCTTGTTAGAATTTAATAGAATCTCAAAAGTCCTGCGCAAG
B5: the binding result in the data set with HT:F-Insv [7] and in the data set with HS:C-BEN [8] was “binds” each time.

B6: His-Sumo C-BEN (HS:C-BEN) (domain or fragment, Drosophila, UniProt Q8SYK5 210-376, looked up)
chain: T2 sequence
notes: Insensitive (Insv), Drosophila; C domain plus BEN domain; 'lacks amino acids 1-209'; elsewhere the C domain is said to extend from aa 209 to aa 253; about 32 kDa with the tag; source: E. coli, purified (Ni-NTA Agarose); not shown: His6, N-terminal, kept; Sumo, N-terminal, kept
In the case of B6, the “stoichiometry N” value in data set [1] was 4; in data set [9], 2.

B7: HT:N1-267 (domain or fragment, Drosophila, UniProt Q8SYK5 1-267, looked up)
chain: MENQYQRIVSATAREDSQARRSKPLFLNAWSQTSSVDFEVLRSISAPDPQVEVENRALRDKVRYLEAKLQQHKDLLSQIHATSARMQQASSLLAESRPPTPPAVQSHHILTPPSSEICAPAQNPQILDYKIISAPDDADAIEIRLAAESLNSLSTSADSDRLEICLGDENHQQSNHHNSQQQYRISNGIKRDGSSESADTPLQFIKRRKLQEIQLQEEIPRQNIKLPAKPQVKARNGSFTDLNKGQQQNMDNVMVSIGPNNTCVPAS
notes: as for B2
On to B7, for which, in [1], the “stoichiometry N” value came to 4.

B8: His-Thioredoxin F-Insv (HT:F-Insv) (natural protein, Drosophila, UniProt Q8SYK5 1-376, looked up)
chain: T1 sequence
notes: Insensitive (Insv), Drosophila, full-length; also called HT:Insv; HT-Insv; source: E. coli, purified (Ni-NTA Agarose); not shown: His6, N-terminal, kept; Thioredoxin, N-terminal, kept
B8: the “stoichiometry N” value in [10] is 2 and 4.
